Key:
CD28 [1] = target: T1, CD28 (Homo sapiens, UniProt P10747); experiment: Flow binding to Jurkat/IL2 reporter cells (CD28); parameters: host or cells: Jurkat cells expressing an IL-2-luciferase reporter
How it was run: (§1)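 Flow cytometry on transfected CHO cells or CD28+ Jurkat/IL2 reporter cells, blocked 20 min in PBS/1% BSA/0.1% azide. Fusion protein 45 min on ice; PE anti-human Fc 1:150, 30 min on ice; fixed in 2% formaldehyde. Read-out PE MFI, EC50 calculated.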

CD28 [2] = target: T1, CD28; experiment: Jurkat/IL2 + CHO/OKT3 +/- PD-L1 reporter assay: PD-L1-dependent CD28 costimulation; format: cell-based; parameters: host or cells: Jurkat cells expressing an IL-2-luciferase reporter; settings: Jurkat/IL2 + CHO/OKT3/PD-L1
How it was run: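 Jurkat reporter cells (100,000/well) preincubated 15 min at room temperature with test protein, then cocultured 5 h at 37 °C with CHO aAPCs bearing anti-CD3 scFv (OKT3) with or without PD-L1. Luciferase luminescence (RLU) read after lysis-substrate addition.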

huCTLA4 = huCTLA4 (Homo sapiens, UniProt P16410); experiment: Flow binding to CHO cells stably expressing CTLA4; parameters: huCTLA4 and huPD-L1, full-length mammalian surface expression constructs were generated; expressed in transfected cells; host or cells: CHO cells, lentiviral transduction, sorted to >98% purity; settings: for CTLA4 MFI at 33.3 nM: CHO cells stably expressing CTLA4
How it was run: as §1

huPD-L1 = huPD-L1 (Homo sapiens, UniProt Q9NZQ7); experiment: Flow binding to CHO cells stably expressing PD-L1; parameters: huCTLA4 and huPD-L1, full-length mammalian surface expression constructs were generated; expressed in transfected cells; host or cells: CHO cells, lentiviral transduction, sorted to >98% purity; settings: Table E23; for PD-L1 MFI at 33.3 nM: CD80 IgV-Fc (inert) at 33.3 nM, CHO cells stably expressing PD-L1
How it was run: as §1

[3] = Table E11, Jurkats (CD28), 33.3 nM
[4] = Table E16, consensus variants, Jurkats (CD28), 33.3 nM
[5] = Table E16, consensus variants, 33.3 nM
[6] = Table E23, CD80 IgV-Fc (inert) at 33.3 nM, Jurkat (CD28)
[7] = Table E23, CD80 IgV-Fc (inert) at 33.3 nM
[8] = Table E10, 33.3 nM, Jurkats (CD28)
[9] = Table E23, MFI at 33.3 nM relative to CD80 WT IgV-Fc
[10] = Table E19, Jurkats (CD28), 33.3 nM

huCTLA4, sequence (P16410 36-223): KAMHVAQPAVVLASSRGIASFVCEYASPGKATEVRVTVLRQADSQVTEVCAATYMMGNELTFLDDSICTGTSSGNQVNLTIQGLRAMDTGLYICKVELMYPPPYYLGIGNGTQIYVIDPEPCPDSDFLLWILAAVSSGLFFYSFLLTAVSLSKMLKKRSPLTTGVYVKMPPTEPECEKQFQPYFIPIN
huPD-L1, sequence (Q9NZQ7 19-290): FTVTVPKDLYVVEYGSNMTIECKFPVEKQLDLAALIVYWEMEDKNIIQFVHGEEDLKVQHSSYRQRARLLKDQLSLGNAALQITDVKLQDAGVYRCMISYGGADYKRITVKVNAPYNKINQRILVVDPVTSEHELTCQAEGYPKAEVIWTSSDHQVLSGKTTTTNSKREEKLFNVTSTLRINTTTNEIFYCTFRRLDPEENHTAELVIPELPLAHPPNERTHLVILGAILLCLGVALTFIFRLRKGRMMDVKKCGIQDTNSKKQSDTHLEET

B1: E35D/M47V/V68M/L85M (protein, UniProt P33681 35-288, looked up, variant E35D M47V V68M L85M)
T-lymphocyte activation …: VIHVTKEVKEVATLSCGHNVSVEELAQTRIYWQKDKKMVLTMMSGDVNIWPEYKNRTIFDITNNLSIMILALRPSDEGTYECVVMKYEKDAFKREHLAEVTLSVKADFPTPSISDFEIPTSNIRRIICSTSGGFPEPHLSWLENGEELNAINTTVSQDPETELYAVSSKLDFNMTTNHSFMCLIKYGHLRVNQTFNWNTTKQEHFPDNLLPSWAITLISVNGIFVICCLTYCFAPRCRERRRNERLRRESVRPV
- CD28 MFI at 33.3 nM (CD28 [1]; [3]): 201
- Relative Luciferase Units (RLU), CD80 Cone 5.0 nM (CD28 [2]; Table E13): 1167 RLU
- CTLA4 MFI at 33.3 nM (huCTLA4; Table E11, 33.3 nM): 15997

B2: H18Y/E35D/M47V/V68M/L85M (protein, UniProt P33681 35-288, looked up, variant H18Y E35D M47V V68M L85M)
T-lymphocyte activation …: VIHVTKEVKEVATLSCGYNVSVEELAQTRIYWQKDKKMVLTMMSGDVNIWPEYKNRTIFDITNNLSIMILALRPSDEGTYECVVMKYEKDAFKREHLAEVTLSVKADFPTPSISDFEIPTSNIRRIICSTSGGFPEPHLSWLENGEELNAINTTVSQDPETELYAVSSKLDFNMTTNHSFMCLIKYGHLRVNQTFNWNTTKQEHFPDNLLPSWAITLISVNGIFVICCLTYCFAPRCRERRRNERLRRESVRPV
- CD28 MFI at 33.3 nM (CD28 [1]; [3]): 373
- CD28 MFI at 33.3 nM (CD28 [1]; [4]): 1387
- Relative Luciferase Units (RLU), CD80 Cone 5.0 nM (CD28 [2]; Table E13): 1013 RLU
- Relative Luciferase Units (RLU), CD80 Cone 5.0 nM (CD28 [2]; Table E17, consensus variants): 2575 RLU
- CTLA4 MFI at 33.3 nM (huCTLA4; Table E11, 33.3 nM): 18367
- CTLA4 MFI at 33.3 nM (huCTLA4; [5]): 19306

B3: H18V/A26G/E35D/M47V/V68M/A71G/D90G (protein, UniProt P33681 35-288, looked up, variant H18V A26G E35D M47V V68M A71G D90G)
T-lymphocyte activation …: VIHVTKEVKEVATLSCGVNVSVEELGQTRIYWQKDKKMVLTMMSGDVNIWPEYKNRTIFDITNNLSIMILGLRPSDEGTYECVVLKYEKGAFKREHLAEVTLSVKADFPTPSISDFEIPTSNIRRIICSTSGGFPEPHLSWLENGEELNAINTTVSQDPETELYAVSSKLDFNMTTNHSFMCLIKYGHLRVNQTFNWNTTKQEHFPDNLLPSWAITLISVNGIFVICCLTYCFAPRCRERRRNERLRRESVRPV
- CD28 MFI at 33.3 nM (CD28 [1]; [6]): 8189
- CTLA4 MFI at 33.3 nM (huCTLA4; [7]): 25398
- PD-L1 MFI at 33.3 nM (huPD-L1): 66198

B4: H18Y/E35D/M47L/V68M/E95V/L97Q (protein, UniProt P33681 35-288, looked up, variant H18Y E35D M47L V68M E95V L97Q)
T-lymphocyte activation …: VIHVTKEVKEVATLSCGYNVSVEELAQTRIYWQKDKKMVLTMMSGDLNIWPEYKNRTIFDITNNLSIMILALRPSDEGTYECVVLKYEKDAFKRVHQAEVTLSVKADFPTPSISDFEIPTSNIRRIICSTSGGFPEPHLSWLENGEELNAINTTVSQDPETELYAVSSKLDFNMTTNHSFMCLIKYGHLRVNQTFNWNTTKQEHFPDNLLPSWAITLISVNGIFVICCLTYCFAPRCRERRRNERLRRESVRPV
- CD28 MFI at 33.3 nM (CD28 [1]; [3]): 14.5
- CD28 MFI at 33.3 nM (CD28 [1]; [4]): 2602
- Relative Luciferase Units (RLU), CD80 Cone 5.0 nM (CD28 [2]; Table E13): 225 RLU
- CTLA4 MFI at 33.3 nM (huCTLA4; Table E11, 33.3 nM): 20475
- CTLA4 MFI at 33.3 nM (huCTLA4; [5]): 18022

B5: R29C/E35D/M47L/V68M/A71G/L85M (protein, UniProt P33681 35-288, looked up, variant R29C E35D M47L V68M A71G L85M)
T-lymphocyte activation …: VIHVTKEVKEVATLSCGHNVSVEELAQTCIYWQKDKKMVLTMMSGDLNIWPEYKNRTIFDITNNLSIMILGLRPSDEGTYECVVMKYEKDAFKREHLAEVTLSVKADFPTPSISDFEIPTSNIRRIICSTSGGFPEPHLSWLENGEELNAINTTVSQDPETELYAVSSKLDFNMTTNHSFMCLIKYGHLRVNQTFNWNTTKQEHFPDNLLPSWAITLISVNGIFVICCLTYCFAPRCRERRRNERLRRESVRPV
modifications: Fc fusion
- CD28 MFI at 33.3 nM (CD28 [1]; [3]): 16
- Relative Luciferase Units (RLU), CD80 Cone 5.0 nM (CD28 [2]; Table E13): 155 RLU
- CTLA4 MFI at 33.3 nM (huCTLA4; Table E11, 33.3 nM): 91

B6: V22D/E24D/E35D/M47V/V68M (protein)
chain: VIHVTKEVKEVATLSCGHNVSDEDLAQTRIYWQKDKKMVLTMMSGDVNIWPEYKNRTIFDITNNLSIMILALRPSDEGTYECVVLKYEKDAFKREHLAEVTLSVKADFPTPSISDFETPTSNIRRIICSTSGGFPEPHLSWLENGEELNAINTTVSQDPETELYAVSSKLDFNMTTNHSFMCLIKYGHLRVNQTFNWNTTKQEHFPDN
modifications: CD80 v385 ECD
- CD28 MFI at 33.3 nM (CD28 [1]; [3]): 191
- Relative Luciferase Units (RLU), CD80 Cone 5.0 nM (CD28 [2]; Table E13): 1023 RLU
- CTLA4 MFI at 33.3 nM (huCTLA4; Table E11, 33.3 nM): 16899

B7: E35D/M47V/T62S/L85Q (protein)
chain: VIHVTKEVKEVATLSCGHNVSVEELAQTRIYWQKDKKMVLTMMSGDVNIWPEYKNRTIFDISNNLSIVILALRPSDEGTYECVVQKYEKDAFKREHLAEVTLSVKAD
- CD28 MFI at 33.3 nM (CD28 [1]; [8]): 99.4
- Relative Luciferase Units (RLU), CD80 Cone 5.0 nM (CD28 [2]; Table E12): 1402 RLU
- CTLA4 MFI at 33.3 nM (huCTLA4; Table E10, 33.3 nM): 31230

B8: H18Y/A26P/E35D/M471/V68M/A71G (protein)
chain: VIHVTKEVKEVATLSCGYNVSVEELPQTRIYWQKDKKMVLTMMSGDINIWPEYKNRTIFDITNNLSIMILGLRPSDEGTYECVVLKYEKDAFKREHLAEVTLSVKAD
- CD28 MFI at 33.3 nM (CD28 [1]; [6]): 5125
- CD28 Fold change to WT CD80 (CD28 [1]; [9]): 50.2
- CTLA4 MFI at 33.3 nM (huCTLA4; [7]): 12156
- CTLA4 Fold change to WT CD80 (huCTLA4; [9]): 8.8
- PD-L1 MFI at 33.3 nM (huPD-L1): 54482
- PD-L1 Fold change to WT CD80 (huPD-L1; MFI at 33.3 nM relative to CD80 WT IgV-Fc): 330.2
- Ratio of PDL1:CD28 (huPD-L1; ratio of MFI at 33.3 nM): 10.6

B9: E35D/M47V/L85M/R94Q (protein)
chain: VIHVTKEVKEVATLSCGHNVSVEELAQTRIYWQKDKKMVLTMMSGDVNIWPEYKNRTIFDITNNLSIVILALRPSDEGTYECVVMKYEKDAFKQEHLAEVTLSVKAD
- CD28 MFI at 33.3 nM (CD28 [1]; [8]): 23.7
- Relative Luciferase Units (RLU), CD80 Cone 5.0 nM (CD28 [2]; Table E12): 466 RLU
- CTLA4 MFI at 33.3 nM (huCTLA4; Table E10, 33.3 nM): 23334

B10: E35D/M47V/I61V/L85M (protein)
chain: VIHVTKEVKEVATLSCGHNVSVEELAQTRIYWQKDKKMVLTMMSGDVNIWPEYKNRTIFDVTNNLSIVILALRPSDEGTYECVVMKYEKDAFKREHLAEVTLSVKAD
- CD28 MFI at 33.3 nM (CD28 [1]; [8]): 274
- Relative Luciferase Units (RLU), CD80 Cone 5.0 nM (CD28 [2]; Table E12): 1176 RLU
- CTLA4 MFI at 33.3 nM (huCTLA4; Table E10, 33.3 nM): 28848

B11: M47V/V68M/K89N (protein)
chain: VIHVTKEVKEVATLSCGHNVSVEELAQTRIYWQKEKKMVLTMMSGDVNIWPEYKNRTIFDITNNLSIMILALRPSDEGTYECVVLKYENDAFKREHLAEVTLSVKAD
- CD28 MFI at 33.3 nM (CD28 [1]; [10]): 1324
- Relative Luciferase Units (RLU), CD80 Conc 5.0 nM (CD28 [2]; Table E21): 862 RLU
- CTLA4 MFI at 33.3 nM (huCTLA4; Table E19, 33.3 nM): 24787

B12: H18Y/A26E/A71G/D90G (protein)
chain: VIHVTKEVKEVATLSCGYNVSVEELEQTRIYWQKEKKMVLTMMSGDMNIWPEYKNRTIFDITNNLSIVILGLRPSDEGTYECVVLKYEKGAFKREHLAEVTLSVKAD
- CD28 MFI at 33.3 nM (CD28 [1]; Table E20, Jurkats (CD28), 33.3 nM): 2001
- Relative Luciferase Units (RLU), CD80 Conc 5.0 nM (CD28 [2]; Table E22): 933 RLU
- CTLA4 MFI at 33.3 nM (huCTLA4; Table E20, 33.3 nM): 19878

B13: E35D/M47V/K89N (protein)
chain: VIHVTKEVKEVATLSCGHNVSVEELAQTRIYWQKDKKMVLTMMSGDVNIWPEYKNRTIFDITNNLSIVILALRPSDEGTYECVVLKYENDAFKREHLAEVTLSVKAD
- CD28 MFI at 33.3 nM (CD28 [1]; [10]): 507
- Relative Luciferase Units (RLU), CD80 Conc 5.0 nM (CD28 [2]; Table E21): 668 RLU
- CTLA4 MFI at 33.3 nM (huCTLA4; Table E19, 33.3 nM): 39282

B14: E35D/N48K/V68M (protein)
chain: VIHVTKEVKEVATLSCGHNVSVEELAQTRIYWQKDKKMVLTMMSGDMKIWPEYKNRTIFDITNNLSIMILALRPSDEGTYECVVLKYEKDAFKREHLAEVTLSVKAD
- CD28 MFI at 33.3 nM (CD28 [1]; [10]): 642
- Relative Luciferase Units (RLU), CD80 Conc 5.0 nM (CD28 [2]; Table E21): 721 RLU
- CTLA4 MFI at 33.3 nM (huCTLA4; Table E19, 33.3 nM): 33583

Source: patent US20220177587A1, “METHODS AND USES OF VARIANT CD80 FUSION PROTEINS AND RELATED CONSTRUCTS” (Alpine Immune Sciences, Inc., priority 2018, published 2022)
